{"source": "patent US6610494B2", "about": "“Solid-phase activity assay for biologically active substance” (priority 1996, dated 2003)", "molecules": {"B1": {"name": "1,4-D glucan glucanohydrolase (protein, UniProt P00690 16-511, looked up)", "Pancreatic alpha-amylase": "QYAPQTQSGRTSIVHLFEWRWVDIALECERYLGPKGFGGVQVSPPNENIVVTNPSRPWWERYQPVSYKLCTRSGNENEFRDMVTRCNNVGVRIYVDAVINHMCGSGAAAGTGTTCGSYCNPGNREFPAVPYSAWDFNDGKCKTASGGIESYNDPYQVRDCQLVGLLDLALEKDYVRSMIADYLNKLIDIGVAGFRIDASKHMWPGDIKAVLDKLHNLNTNWFPAGSRPFIFQEVIDLGGEAIQSSEYFGNGRVTEFKYGAKLGTVVRKWSGEKMSYLKNWGEGWGFMPSDRALVFVDNHDNQRGHGAGGASILTFWDARLYKVAVGFMLAHPYGFTRVMSSYRWARNFVNGQDVNDWIGPPNNNGVIKEVTINADTTCGNDWVCEHRWRQIRNMVWFRNVVDGQPFANWWANGSNQVAFGRGNRGFIVFNNDDWQLSSTLQTGLPGGTYCDVISGDKVGNSCTGIKVYVSSDGTAQFSISNSAEDPFIAIHAESKL", "notes": "EC 3.2.1.1 from porcine pancreas (Type 1-A)"}, "B2": {"name": "papain: cysteine protease, EC 3.4.22.2 (protein, UniProt P00784 134-345, looked up)", "Papain": "IPEYVDWRQKGAVTPVKNQGSCGSCWAFSAVVTIEGIIKIRTGNLNEYSEQELLDCDRRSYGCNGGYPWSALQLVAQYGIHYRNTYPYEGVQRYCRSREKGPYAAKTDGVRQVQPYNEGALLYSIANQPVSVVLEAAGKDFQLYRGGIFVGPCGNKVDHAVAAVGYGPNYILIKNSWGTGWGENGYIRIKRGTGNSYGVCGLYTSSFYPVKN"}, "B3": {"name": "endo-1,3-1,4-β-D-glucan-4-glucanohydrolase (protein, UniProt P04957 29-242, looked up)", "Beta-glucanase": "QTGGSFFDPFNGYNSGFWQKADGYSNGNMFNCTWRANNVSMTSLGEMRLALTSPAYNKFDCGENRSVQTYGYGLYEVRMKPAKNTGIVSSFFTYTGPTDGTPWDEIDIEFLGKDTTKVQFNYYTNGAGNHEKIVDLGFDAANAYHTYAFDWQPNSIKWYVDGQLKHTATNQIPTTPGKIMMNLWNGTGVDEWLGSYNGVNPLYAHYDWVRYTKK", "notes": "EC 3.2.1.73 from Bacillus subtilis, Megazyme"}, "B4": {"name": "thermolysin: metaloprotease, EC 3.4.24.27 (protein, UniProt P00800 233-548, looked up)", "Thermolysin": "ITGTSTVGVGRGVLGDQKNINTTYSTYYYLQDNTRGNGIFTYDAKYRTTLPGSLWADADNQFFASYDAPAVDAHYYAGVTYDYYKNVHNRLSYDGNNAAIRSSVHYSQGYNNAFWNGSQMVYGDGDGQTFIPLSGGIDVVAHELTHAVTDYTAGLIYQNESGAINEAISDIFGTLVEFYANKNPDWEIGEDVYTPGISGDSLRSMSDPAKYGDPDHYSKRYTGTQDNGGVHINSGIINKAAYLISQGGTHYGVSVVGIGRDKLGKIFYRALTQYLTPTSNFSQLRAAAVQSATDLYGSTSQEVASVKQAFDAVGVK"}}, "key": {"[1]": {"experiment": "ELSA: hydrolysis of plate-bound biotinylated β-glucan by enzymes", "type": "biochemical", "conditions": "for Relative activity compared to lichenase (mean ± SD, n = 12): enzymes diluted to 5 U/mL per manufacturer values, 0.2 biotin-glucan diluted 1 to 50,000, hydrolysis 15 min, 22° C.", "experimental": "Preparation of biotin-glucan conjugates. The technique is based on the principle that active aldehyde groups which is generated after sodium periodate oxidation of the hydroxyl group of the polysaccharide moiety, reacts with ethylenediamine to form an aminated polysaccharide. The Schiff bases that are formed are stabilized by reaction with sodium borohydride (Wong, 1991). The amine groups can then be conjugated to biotin using BNHS. In brief, 75 mg β-glucan was dissolved in 2 mL distilled water and 0.1 mL of 100 mM NaIO4 was then added. The reaction was protected from light and mixed for 0.5 hours at room temperature. The reaction mixture was treated with 1 mL ethylenediamine for 2 hours and unreacted reagents were removed by ethanol precipitation. This involved the addition of 8 mL of 95% (V/V) ethanol to the reaction mixture (3 mL), followed by mixing of the sample, centrifugation at 10000 g for 10 minutes at 0° C. and dissolving the pellet in 2 mL of distilled water. The preparations was washed three times. The washed precipitate was then dissolved in 2 mL distilled water, 5 mg of sodium borohydride were added and the reaction was allowed to proceed for 4 hours at 4° C. The washing steps as indicated above were repeated three times. The biotin ester (BNHS, 15 mg or 0.15 mg) was dissolved in 0.2 mL DMSO, the mixture was allowed to react at room temperature for 3 hours followed by three ethanol precipitations as described above. The final precipitate was dissolved in 3 mL distilled water, divided into aliquots and each aliquot of the BNHS-β-glucan complex was store frozen at […] in sealed polypropylene containers. The ratio of BNHS to β-glucan were 0.2 and 0.002 for the complexes that were synthesized from 15 mg or 0.15 mg BNHS and 75 mg β-glucan, respectively.\nThe microtitre plates were directly coated with 0.1 mL/well of the biotin-glucan complex diluted in 0.05 M carbonate-bicarbonate buffer (pH=9.6), and then left at room temperature for 1 hr and overnight at […] The usual dilutions of the 0.2 and 0.002 stock biotin-glucan complex were 50,000 and 100 fold, respectively. The plates were washed 3 times with PBS-T buffer and the emptied plates were stored in sealed containers at 0° C. for up to several months.\nTest procedures. β-Glucanase (lichenase) was diluted with 20 mM sodium phosphate buffer (pH 6.5) to the desired concentration. The enzyme (100 μL) was added to each well in the biotin-glucan coated microtiter plate, the plate was sealed with a low evaporation lid, and the mixture was incubated for the desired period of time (from 1 to 30 minutes) and at the desired temperature (usually 22-24° C.). The reaction was stopped by emptying the plates followed by washing of the wells three times with pH 7.2 PBS-T. Blanks contained the incubation buffer without enzyme. Alkaline phosphatase-streptavidin (100 μg) diluted 1:1000 in pH 7.2 PBS was added to each well and incubated for 30 minutes at room temperature. The plates were washed six times with pH 7.2 PBS-T and dried at ambient temperature for approximately 10 to 20 minutes. Alkaline phosphatase substrate solution was then added to each well (100 μL) and the microtiter plates were incubated at room temperature for 30 minutes, or until absorbency of the well with no enzyme yielded a value of from 1.5 to 2.0 optical density units. The plates were read at 405 nm using a microtiter plate reader (Bio-Rad Laboratories Ltd., Mississauga, ON, Canada, Model 450).\nOther procedures The method for preparing the arabinoxylan substrate was the same as used for β-glucan except the substrate was arabinoxylan rather than β-glucan. The BNHS to arabinoxylan ratio was 0.2 with the stock substrate being diluted 10,000 fold prior to being coated on the plate. The azo-barley-glucan method for the assay of β-glucanase was according to the procedure described by McCleary and Shameer (1987). The precision of the assay was studied using three concentration of enzyme (0.076, 2.1 and 160 mU)/well. […]"}, "trypsin (EC 3.4.21.4)": {"test_system": "trypsin (EC 3.4.21.4)", "experiment": "BEISA: competition of inhibitors or other substances for biotinylated trypsin against coated ovomucoid", "type": "binding", "quoted_text": "Methods: NHS-biotin solution (5.5 mg in 200 ul dimethyl sulfoxide) and trypsin solution (15 mg in 1000 ul PBS) were mixed and reacted at room temperature for 3 hours with gently shaking. The unconjugated biotin was removed at 4° C. using minicon-15 concentrator (Amicon. Co.). The final volume was 1000 ul.\nThe 96-well microtiter plate (Falcon 3911) was coated with trypsin egg white inhibitor (ovomucoid, 4 ug/100 ul/well) at 370° C. overnight. The plate was washed once using PBST {[PBS, NaCl, 9.00; Na2HPO4, 1.15; NaH2PO4, 0.23 (g/l) pH 7.2] plus 0.05% Tween-20} and 200 ul of 5% skim milk was added to each well of the plate followed by incubation at 37° C. for 2 hours. The plate was rinsed twice with PBST and 50 ul of PBS was added to each well of the plate except for those in column one where 100 ul of PBS was added. Unlabelled trypsin (50 ul of 400 ug/ml) was added to the wells of the second column followed by successive double dilutions of trypsin in wells up to and including those in column 11. Biotinylated trypsin in PBS (50 ul of 1:3000 dilution of the stock to yield approximately 2 ug/100 ul/well) was added to each well except those in the first column followed by incubation at 37° C. for 1 hour. The final volume in each well was 100 ul. The blank set of wells with no trypsin (column 1) served as the negative control while the last set of wells (column 12) with biotinylated trypsin but no unlabelled trypsin served as the positive control. The plate was then washed three times with PBST and 100 ul of streptavidin-alkaline phosphatase (1:1000 in 50 mM bicarbonate buffer, pH 9.5) was added to each well of the plate and the plate was incubated at room temperature for 30 minutes. The plate was washed five times using PBST and 100 ul/well of p-nitrophenyl phosphate substrate (1 mg/ml in 10% diethanolamine buffer, pH 9.8) was added to the plate followed by incubation at ambient temperature for about 30 minutes. The absorbency was then read at 405 nm using a microplate reader (Bio-Rad laboratories Inc. Mississauga, ON, Canada, model 450). […]"}, "biotinylated α-casein": {"test_system": "biotinylated α-casein", "experiment": "Solid phase protease activity assay using biotinylated casein", "type": "biochemical", "conditions": "for Hydrolysis of biotin-casein by proteases / Sensitivity (amount of enzyme required to hydrolyse 10% of the biotinylated α-casein): optimal pH of each protease, 37° C., 30 minutes", "experimental": "Preparation of biotinylated casein: 12 mg α-casein in 1 ml of 0.1 M pH 7.2 phosphate-buffer saline [PBS, NaCl, 9.00; Na2HPO4, 1.15; NaH2PO4, 0.23 (g/l)] was allowed to react with 3.6 mg NHS-biotin in 150 ul DMSO for 2 hours at room temperature with gently shaking.\nAssay procedure for protease activity using biotinylated casein: The microtitre plates except for the first column of 8 wells were coated using biotinylated α-casein in PBS (0.13 ug/well/100 ul) and incubated for 2 hours at 37° C. The plates were washed three times with 0.1 M PBST (PBS with 0.05% Tween-20). Different concentrations of the enzyme solution as indicated in FIGS. 12-14 (100 ul) were diluted with the appropriate buffer (see Table 2). They were added in triplicate to the wells of a plate followed by incubating in a humid atmosphere at 37° C. for 30 minutes. The plate was washed three times using PBST to terminate the protease reaction. A streptavidin-alkaline phosphatase solution (100 ul/well, 1:1000 dilution in bicarbonate buffer pH 9.5) was added to all wells in the plate except for the first column of 8 wells (as blank) and the plate was incubated at room temperature for 30 minutes. The blank set of wells contained only PBS, no added enzyme and no coating with biotinylated casein. The reaction was stopped by emptying and washing the plate six times with PBST. The pNPP substrate (100 ul/well, 1 mg/ml in 10% diethanolamine buffer pH9.8) was added to each well of the plate followed by incubation at room temperature for about 20 minutes. The absorbency was then read at 405 nm using a microplate reader (Bio-Rad laboratories, Ltd, Mississauga, ON, Canada; model 450). The best sensitivity was obtained when the maximum absorbency was around 2.0 optical density units."}, "β-glucanase (lichenase)": {"biological_target": "T1, β-glucanase (lichenase) (Bacillus subtilis, UniProt P04957)", "T1 construct": "purchased Megazyme Pty.Ltd. batch MLI 82001", "experiment": "Influence of exogenous β-glucan on β-glucanase activity in the ELSA", "type": "biochemical", "conditions": "0.5 mU β-glucanase/well; 22° C., 15 minutes", "description": "(§1) Other procedures The method for preparing the arabinoxylan substrate was the same as used for β-glucan except the substrate was arabinoxylan rather than β-glucan. The BNHS to arabinoxylan ratio was 0.2 with the stock substrate being diluted 10,000 fold prior to being coated on the plate. The azo-barley-glucan method for the assay of β-glucanase was according to the procedure described by McCleary and Shameer (1987). The precision of the assay was studied using three concentration of enzyme (0.076, 2.1 and 160 mU)/well. They were added (100 μl) to wells containing the 0.2 biotin-β-glucan diluted 1 to 50,000 and the mixture was incubated for 15 minutes at 22° C. Other procedures were as described above. The assay within the same titer plate was replicated 8 times. The entire assay was replicated 6 times. In the study on the effects that β-glucan had on enzyme activity, β-glucan (5.12 mg/mL) in 20 mM sodium phosphate buffer (pH6.5) was mixed with an equal volume of 0.2 U/mL of β-glucanase and hydrolysed at 40° C. for 60 minutes. The reaction was stopped by putting the enzyme solution in a boiling water bath for 15 minutes. The control sample contained β-glucan but was not incubated with enzyme and was not subjected to boiling. […]"}, "[2]": {"experiment": "ELSA for xylanase using biotin-arabinoxylan complex", "type": "biochemical", "description": "as §1"}, "[3]": {"experiment": "Azo-barley glucan method for β-glucanase", "type": "biochemical", "description": "as §1"}}}
{"molecule": "1,4-β-D-glucan-4-glucanohydrolase [Cellulase]", "values": [{"measurement": "Relative activity compared to lichenase (mean ± SD, n = 12)", "setting": "[1]", "result": "101 ± 7"}]}
{"molecule": "CC(C)C[C@H](NC(=O)N[C@H](C(=O)N[C@@H](CCC(N)=O)C(=O)N[C@@H](C)C=O)[C@@H]1CCNC(=N)N1)C(=O)O", "note": "[elastatinal]", "values": [{"measurement": "Interference with the binding of labelled trypsin to trypsin inhibitor", "setting": "trypsin (EC 3.4.21.4)", "result": "did not interfere"}]}
{"molecule": "CC(=O)N[C@@H](CC(C)C)C(=O)N[C@@H](CC(C)C)C(=O)N[C@H](C=O)CCCNC(=N)N", "note": "[leupeptin]", "values": [{"measurement": "Concentration of inhibitor that could be detected", "setting": "trypsin (EC 3.4.21.4); ovomucoid-coated plate 4 ug/100 ul/well, biotinylated trypsin about 2 ug/100 ul/well", "result": "0.03 to 1", "unit": "µg/mL"}]}
{"molecule": "amylopectin 6-glycohydrolase [Pullulanase]", "values": [{"measurement": "Relative activity compared to lichenase (mean ± SD, n = 12)", "setting": "[1]", "result": "1.8 ± 0.1"}]}
{"molecule": "bovine serum albumin (BSA): other protein tested for interference", "values": [{"measurement": "Interference with the binding of labelled trypsin to trypsin inhibitor", "setting": "trypsin (EC 3.4.21.4)", "result": "did not interfere"}]}
{"molecule": "elastase", "values": [{"measurement": "Hydrolysis of biotin-casein by proteases", "setting": "biotinylated α-casein", "result": "Yes"}, {"measurement": "Sensitivity (amount of enzyme required to hydrolyse 10% of the biotinylated α-casein)", "setting": "biotinylated α-casein", "result": 4.4, "unit": "ng/100 ul/sample"}]}
{"molecule": "endo-1,4-β-D xylan xylanohydrolase [Endo-β-xylanase]", "values": [{"measurement": "Relative activity compared to lichenase (mean ± SD, n = 12)", "setting": "[1]", "result": "2.1 ± 0.1"}]}
{"molecule": "pepsin", "values": [{"measurement": "Hydrolysis of biotin-casein by proteases", "setting": "biotinylated α-casein", "result": "Yes"}, {"measurement": "Sensitivity (amount of enzyme required to hydrolyse 10% of the biotinylated α-casein)", "setting": "biotinylated α-casein", "result": 641, "unit": "ng/100 ul/sample"}]}
{"molecule": "β-glucan", "values": [{"measurement": "Amount of β-glucan in the well above which enzyme activity was reduced", "setting": "β-glucanase (lichenase)", "result": "exceeded 1 μg/well"}]}
{"molecule": "B1", "values": [{"measurement": "Relative activity compared to lichenase (mean ± SD, n = 12)", "setting": "[1]", "result": "4.3 ± 0.2"}]}
{"molecule": "B2", "values": [{"measurement": "Sensitivity: amount of enzyme required to produce a 10% decrease in maximal absorbency", "setting": "biotinylated α-casein; 0.5 hour hydrolysis", "result": 700, "unit": "ng/100 ul"}, {"measurement": "Hydrolysis of biotin-casein by proteases", "setting": "biotinylated α-casein", "result": "Yes"}, {"measurement": "Sensitivity (amount of enzyme required to hydrolyse 10% of the biotinylated α-casein)", "setting": "biotinylated α-casein", "result": 700, "unit": "ng/100 ul/sample"}]}
{"molecule": "B3", "values": [{"measurement": "Activity on biotin-arabinoxylan substrate", "setting": "[2]", "result": "No activity"}, {"measurement": "Detection range of the azo-barley glucan procedure", "setting": "[3]", "result": "10 to 100", "unit": "mU/assay"}, {"measurement": "Detection range for the ELSA", "setting": "[1]", "result": "0.001 to 1", "unit": "mU/assay"}, {"measurement": "Relative activity compared to lichenase (mean ± SD, n = 12)", "setting": "[1]", "result": "100 ± 4"}]}
{"molecule": "B4", "values": [{"measurement": "Hydrolysis of biotin-casein by proteases", "setting": "biotinylated α-casein", "result": "Yes"}, {"measurement": "Sensitivity (amount of enzyme required to hydrolyse 10% of the biotinylated α-casein)", "setting": "biotinylated α-casein", "result": 25, "unit": "ng/100 ul/sample"}]}
